Source: patent publication KR20210098147A (dated 2021)

Target: T1, PD-L1 (Programmed death-ligand 1) on MDA-MB-231 cancer cells (UniProt Q9NZQ7 19-290, limits assumed)
T1 construct: whole, on cells; Endogenous PD-L1 of the MDA-MB-231 cell line
Assay: concluded from co-culture 4-1BB reporter assay with PD-L1-expressing MDA-MB-231 cells

T1 sequence (Q9NZQ7 19-290 limits assumed): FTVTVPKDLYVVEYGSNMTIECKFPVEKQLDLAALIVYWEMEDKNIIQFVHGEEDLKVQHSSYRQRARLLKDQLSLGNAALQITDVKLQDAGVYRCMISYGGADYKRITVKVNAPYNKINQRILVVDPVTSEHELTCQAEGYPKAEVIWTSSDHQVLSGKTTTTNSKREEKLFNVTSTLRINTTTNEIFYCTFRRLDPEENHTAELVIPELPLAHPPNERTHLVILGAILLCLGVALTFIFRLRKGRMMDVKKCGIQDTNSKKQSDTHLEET

B1: αCEA-αPDL1-hyFc-4-1BBL 융합단백질 이량체 (Fc fusion)
chain: EVQLVESGGGVVQPGRSLRLSCSASGFDFTTYWMSWVRQAPGKGLEWIGEIHPDSSTINYAPSLKDRFTISRDNAKNTLFLQMDSLRPEDTGVYFCASLYFGFPWFAYWGQGTPVTVSSGGGGSGGGGSGGGGSDIQLTQSPSSLSASVGDRVTITCKASQDVGTSVAWYQQKPGKAPKLLIYWTSTRHTGVPSRFSGSGSGTDFTFTISSLQPEDIATYYCQQYSLYRSFGQGTKVEIKGGGGSGGGGSGGGGSGGGGSEVQLLESGGGLVQPGGSLRLSCAASGFTFSSYDMSWVRQAPGKSLEWVATISDAGGYIYYSDSVKGRFTISRDNSKNTLYLQMNSLRAEDTAVYICAREFGKRYALDYWGQGTTVTVSSGGGGSGGGGSGGGGSDIQMTQSPSSLSASVGDRVTITCKASQDVTPAVAWYQQKPGKAPKLLIYSTSSRYTGVPSRFSGSGSGTDFTFTISSLQPEDIATYYCQQHYTTPLTFGQGTKLEIKGGGGSGGGGSGGGGSEPKSCDKTHTCPPCPSHTQPLGVFLFPPKPKDQLMISRTPEVTCVVVDVSQEDPEVQFNWYVDGVEVHNAKTKPREEQFNSTYRVVSVLTVLHQDWLNGKEYKCKVSNKGLPSSIEKTISKAKGQPREPQVYTLPPSQEEMTKNQVSLTCLVKGFYPSDIAVEWESNGQPENNYKTTPPVLDSDGSFFLYSRLTVDKSRWQEGNVFSCSVLHEALHNHYTQKSLSLSLGKGGGGSDPAGLLDLRQGMFAQLVAQNVLLIDGPLSWYSDPGLAGVSLTGGLSYKEDTKELVVAKAGVYYVFFCLELRRVVAGEGSGSVSLALHLQPLRSAAGAAALALTVDLPPASSEARNSAFGFQGRLLHLSAGQRLGVHLHTEARARHAWQLTQGATVLGLFRVCPEIPAGLPSPRSE
notes: Homodimer by disulfide bonds in the linker; also called IO-129; αCEA-αPDL1-hyFc-h4-1BBL 융합단백질 이량체
binding result: binds
